The numbers were not newly measured in article PMC5371862, which cites them from elsewhere.

Data set [1] has as its target edema factor (Bacillus anthracis) (UniProt P40136).
Data set [2] addresses lethal factor (Bacillus anthracis) (UniProt P15917).
The next data set concerns the target P-type calcium channel (UniProt O00555).
In data set [3] the target is muscarinic acetylcholine receptor M4 (Homo sapiens) (UniProt P08173).
For data set [4], the target named is muscarinic acetylcholine receptor M1 (Homo sapiens) (UniProt P11229).
Sequence of muscarinic acetylcholine receptor M1 (Homo sapiens) (P11229 whole entry): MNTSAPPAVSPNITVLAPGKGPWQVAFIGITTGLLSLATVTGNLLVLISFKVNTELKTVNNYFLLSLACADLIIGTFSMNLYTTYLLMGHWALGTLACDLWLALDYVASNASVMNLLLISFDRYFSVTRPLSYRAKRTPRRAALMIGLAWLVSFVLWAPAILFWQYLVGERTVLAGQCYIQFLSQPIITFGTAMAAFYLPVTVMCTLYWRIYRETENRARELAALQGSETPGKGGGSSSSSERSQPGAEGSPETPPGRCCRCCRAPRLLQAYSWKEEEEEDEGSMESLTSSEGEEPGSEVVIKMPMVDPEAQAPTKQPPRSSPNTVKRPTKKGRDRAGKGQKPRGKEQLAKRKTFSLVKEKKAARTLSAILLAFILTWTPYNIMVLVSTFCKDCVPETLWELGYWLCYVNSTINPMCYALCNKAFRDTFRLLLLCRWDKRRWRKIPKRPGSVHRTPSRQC

Sequence of protective antigen PA63 oligomer PA63 (P13423 197-764): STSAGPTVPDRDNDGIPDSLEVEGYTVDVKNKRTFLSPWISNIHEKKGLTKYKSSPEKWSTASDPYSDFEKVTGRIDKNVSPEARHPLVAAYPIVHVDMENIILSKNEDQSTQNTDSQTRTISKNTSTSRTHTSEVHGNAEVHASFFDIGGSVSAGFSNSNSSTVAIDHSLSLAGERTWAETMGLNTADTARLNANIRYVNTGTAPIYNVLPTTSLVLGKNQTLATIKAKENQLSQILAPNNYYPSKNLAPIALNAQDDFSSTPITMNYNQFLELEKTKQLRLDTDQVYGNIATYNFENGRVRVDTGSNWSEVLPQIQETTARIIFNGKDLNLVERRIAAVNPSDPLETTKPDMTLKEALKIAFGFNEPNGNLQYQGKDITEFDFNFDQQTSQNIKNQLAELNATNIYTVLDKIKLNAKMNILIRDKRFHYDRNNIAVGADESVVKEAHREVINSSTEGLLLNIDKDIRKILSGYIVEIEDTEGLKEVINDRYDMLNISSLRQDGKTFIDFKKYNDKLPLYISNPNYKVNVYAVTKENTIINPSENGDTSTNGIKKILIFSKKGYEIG
Sequence of edema factor (Bacillus anthracis) (P40136 34-800): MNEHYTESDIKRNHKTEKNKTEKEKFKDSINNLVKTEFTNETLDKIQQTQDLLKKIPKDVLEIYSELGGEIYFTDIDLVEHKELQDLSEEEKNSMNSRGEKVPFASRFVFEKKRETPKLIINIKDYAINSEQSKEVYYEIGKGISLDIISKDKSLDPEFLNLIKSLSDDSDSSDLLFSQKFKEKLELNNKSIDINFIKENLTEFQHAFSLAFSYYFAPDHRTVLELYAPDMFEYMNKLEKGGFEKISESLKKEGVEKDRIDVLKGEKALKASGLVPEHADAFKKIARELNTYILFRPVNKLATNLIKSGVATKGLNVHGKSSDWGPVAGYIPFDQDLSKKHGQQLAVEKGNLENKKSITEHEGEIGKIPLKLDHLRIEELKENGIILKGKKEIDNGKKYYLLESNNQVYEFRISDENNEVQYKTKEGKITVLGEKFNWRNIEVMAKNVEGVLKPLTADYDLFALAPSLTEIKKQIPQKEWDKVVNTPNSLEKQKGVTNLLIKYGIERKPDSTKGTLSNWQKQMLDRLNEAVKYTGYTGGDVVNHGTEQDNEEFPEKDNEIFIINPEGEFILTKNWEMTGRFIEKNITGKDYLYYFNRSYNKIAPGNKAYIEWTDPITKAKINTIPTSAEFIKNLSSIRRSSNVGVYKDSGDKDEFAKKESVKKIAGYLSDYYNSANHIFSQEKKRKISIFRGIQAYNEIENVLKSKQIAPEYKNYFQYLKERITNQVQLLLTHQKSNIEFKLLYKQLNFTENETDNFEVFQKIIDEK
Sequence of muscarinic toxin MT7 (Q8QGR0 22-86): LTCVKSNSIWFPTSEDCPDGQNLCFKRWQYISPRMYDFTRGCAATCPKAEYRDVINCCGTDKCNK
Sequence of muscarinic toxin MT3 (P81031 whole entry): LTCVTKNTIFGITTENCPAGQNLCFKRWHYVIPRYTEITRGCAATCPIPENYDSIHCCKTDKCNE
Sequence of muscarinic acetylcholine receptor M4 (Homo sapiens) (P08173 whole entry): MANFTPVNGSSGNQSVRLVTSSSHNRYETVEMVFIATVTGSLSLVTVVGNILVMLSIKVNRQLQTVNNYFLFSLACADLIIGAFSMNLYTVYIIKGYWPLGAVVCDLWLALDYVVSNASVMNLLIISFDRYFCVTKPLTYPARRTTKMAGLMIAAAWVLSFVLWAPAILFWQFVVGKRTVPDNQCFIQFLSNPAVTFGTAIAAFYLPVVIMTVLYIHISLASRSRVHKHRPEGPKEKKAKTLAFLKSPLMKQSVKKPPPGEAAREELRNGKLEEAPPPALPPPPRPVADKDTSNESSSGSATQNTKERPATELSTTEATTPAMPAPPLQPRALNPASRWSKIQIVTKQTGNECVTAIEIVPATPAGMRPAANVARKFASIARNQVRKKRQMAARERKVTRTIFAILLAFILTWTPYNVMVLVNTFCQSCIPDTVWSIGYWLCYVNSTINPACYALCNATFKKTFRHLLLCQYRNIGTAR
Sequence of P-type calcium channel (O00555 whole entry): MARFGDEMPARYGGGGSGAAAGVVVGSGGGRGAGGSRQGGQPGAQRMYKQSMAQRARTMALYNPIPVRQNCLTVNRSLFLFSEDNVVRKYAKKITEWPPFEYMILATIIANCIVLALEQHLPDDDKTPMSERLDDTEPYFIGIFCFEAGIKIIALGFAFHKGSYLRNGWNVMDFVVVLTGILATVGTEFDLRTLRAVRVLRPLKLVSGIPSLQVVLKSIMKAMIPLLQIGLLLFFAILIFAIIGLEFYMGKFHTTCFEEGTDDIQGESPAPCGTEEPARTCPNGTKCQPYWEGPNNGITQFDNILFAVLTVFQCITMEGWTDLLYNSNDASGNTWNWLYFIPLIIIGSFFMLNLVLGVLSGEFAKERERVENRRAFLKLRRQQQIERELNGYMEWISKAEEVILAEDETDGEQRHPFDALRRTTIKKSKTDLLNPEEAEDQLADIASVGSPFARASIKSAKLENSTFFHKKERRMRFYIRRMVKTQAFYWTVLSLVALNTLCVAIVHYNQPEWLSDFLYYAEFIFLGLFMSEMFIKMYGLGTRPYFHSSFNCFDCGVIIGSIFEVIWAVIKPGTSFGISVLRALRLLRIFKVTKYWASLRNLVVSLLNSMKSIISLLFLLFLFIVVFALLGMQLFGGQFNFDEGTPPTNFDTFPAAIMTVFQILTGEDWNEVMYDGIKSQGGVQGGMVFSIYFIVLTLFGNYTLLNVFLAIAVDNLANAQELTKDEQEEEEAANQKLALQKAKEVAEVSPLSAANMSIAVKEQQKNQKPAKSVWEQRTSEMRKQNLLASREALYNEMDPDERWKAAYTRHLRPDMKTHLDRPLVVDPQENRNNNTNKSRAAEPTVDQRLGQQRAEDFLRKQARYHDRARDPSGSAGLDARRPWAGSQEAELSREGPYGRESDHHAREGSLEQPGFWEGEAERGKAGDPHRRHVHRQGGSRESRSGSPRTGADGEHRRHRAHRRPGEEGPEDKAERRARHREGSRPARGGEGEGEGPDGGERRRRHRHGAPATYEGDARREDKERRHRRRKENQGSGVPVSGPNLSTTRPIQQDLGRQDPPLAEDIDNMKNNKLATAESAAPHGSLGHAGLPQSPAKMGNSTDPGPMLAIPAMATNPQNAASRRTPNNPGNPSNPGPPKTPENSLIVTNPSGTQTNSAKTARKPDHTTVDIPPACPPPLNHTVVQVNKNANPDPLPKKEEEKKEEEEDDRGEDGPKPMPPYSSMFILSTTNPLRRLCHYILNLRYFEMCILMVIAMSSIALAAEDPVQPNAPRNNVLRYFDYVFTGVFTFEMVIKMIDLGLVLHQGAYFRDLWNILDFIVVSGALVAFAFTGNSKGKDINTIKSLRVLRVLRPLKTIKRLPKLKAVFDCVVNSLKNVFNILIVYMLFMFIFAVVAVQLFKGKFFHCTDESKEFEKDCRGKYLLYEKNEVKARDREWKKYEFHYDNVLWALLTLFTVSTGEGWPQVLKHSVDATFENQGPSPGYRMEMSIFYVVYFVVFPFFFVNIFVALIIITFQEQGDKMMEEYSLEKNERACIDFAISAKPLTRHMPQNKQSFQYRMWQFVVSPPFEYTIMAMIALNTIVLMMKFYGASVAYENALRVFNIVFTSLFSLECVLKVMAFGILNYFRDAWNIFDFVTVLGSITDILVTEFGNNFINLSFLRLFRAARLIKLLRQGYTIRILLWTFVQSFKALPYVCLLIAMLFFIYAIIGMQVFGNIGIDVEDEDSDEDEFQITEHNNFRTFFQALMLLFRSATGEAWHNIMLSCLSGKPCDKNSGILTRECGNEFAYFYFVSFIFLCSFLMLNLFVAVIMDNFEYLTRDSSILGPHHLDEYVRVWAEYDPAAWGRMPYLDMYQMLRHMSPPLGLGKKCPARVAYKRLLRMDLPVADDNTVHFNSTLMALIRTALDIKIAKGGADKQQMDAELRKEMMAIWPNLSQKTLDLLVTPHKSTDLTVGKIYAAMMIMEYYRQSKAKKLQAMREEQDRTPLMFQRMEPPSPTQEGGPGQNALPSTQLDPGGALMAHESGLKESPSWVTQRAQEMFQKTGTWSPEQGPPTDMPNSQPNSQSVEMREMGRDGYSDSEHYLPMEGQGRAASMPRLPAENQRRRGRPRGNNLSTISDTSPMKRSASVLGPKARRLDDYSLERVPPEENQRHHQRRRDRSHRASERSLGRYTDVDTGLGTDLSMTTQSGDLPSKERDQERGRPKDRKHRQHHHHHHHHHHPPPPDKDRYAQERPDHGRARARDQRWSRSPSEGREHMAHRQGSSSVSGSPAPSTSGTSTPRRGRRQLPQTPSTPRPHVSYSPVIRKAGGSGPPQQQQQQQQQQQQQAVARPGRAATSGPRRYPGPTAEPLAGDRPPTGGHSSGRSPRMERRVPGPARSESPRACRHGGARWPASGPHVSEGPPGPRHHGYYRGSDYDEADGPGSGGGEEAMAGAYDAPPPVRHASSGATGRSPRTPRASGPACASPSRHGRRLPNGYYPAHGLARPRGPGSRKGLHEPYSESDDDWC
Sequence of omega-agatoxin Aga-IVA (P30288 whole entry): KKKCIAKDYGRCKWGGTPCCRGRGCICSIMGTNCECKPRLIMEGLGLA

For the substance “protective antigen PA63 oligomer PA63 (from UniProt P13423)”, the Kd in data set [1] and in data set [2] was 1 nM in each case. “omega-agatoxin Aga-IVA (from UniProt P30288)”: the dissociation constant Kd with P-type calcium channel is 3 nM. In the case of “muscarinic toxin MT3 (from UniProt P81031)”, the Ki in data set [3] was 2 nM. As for “muscarinic toxin MT7 (from UniProt Q8QGR0)”, the Ki in data set [4] is 0.014 nM.

One may read the Kd as the free concentration of one partner at which half of the binding sites on the other are occupied at equilibrium, for simple one-to-one binding. For orientation: Ki means a dissociation constant, usually derived from enzyme kinetics or from competition with a known ligand.
